Assay results published in US20030130184, “Methods of inducing cell death” (The University of Bristol, published 2003).

Target: T1, HPV16 E2Ct (E2 DNA binding domain) (Human papillomavirus type 16, UniProt P0DKA0 SEQ:1-87)
T1 chain: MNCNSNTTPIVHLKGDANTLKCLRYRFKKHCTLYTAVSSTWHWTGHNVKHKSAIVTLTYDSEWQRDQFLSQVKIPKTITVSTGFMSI
Assay: EMSA; 10, 50, 250 nM protein; binds tightly; 20 mM HEPES pH 7.9, 25 mM KCl, poly[d(I-C)], 20 C; refolded E2Ct also binds (FIG. 7a)
Conditions: chain copies: 2 (stated, dimer); label: 32P 5' end

B1: HPV16 E2 site 1, E2(1) (dsDNA)
DNA 1: TTGAACCGAAACCGGTTAGT
DNA 2: ACTAACCGGTTTCGGTTCAA
binding result: binds
